According to PMC3343374:
Where “and” joins values, the source holds several entries; their conditions need not be identical. Equal entries are not always repeated. Where two headings read alike, the source gives them in different places. One block for each substance: values may come before it.

Columns and labels:
[1] = molecular target: GluA2S amino-terminal domain expressed in HEK293T cells (complex glycosylation); experiment: dynamic light scattering
[2] = molecular target: GluA2S amino-terminal domain expressed in HEK293T cells (complex glycosylation); experiment: SEC-MALS
[3] = molecular target: GluA2S amino-terminal domain expressed in HEK293T cells (complex glycosylation); experiment: AUC
[4] = molecular target: GluA2S amino-terminal domain expressed in HEK293T cells (complex glycosylation); experiment: AUC; remark: listed apart in the source
[5] = molecular target: FAM-labeled, EndoH-digested GluA2S amino-terminal domain; experiment: AUC
[6] = molecular target: FAM-labeled, EndoH-digested GluA2S amino-terminal domain; experiment: AUC; remark: listed apart in the source
[7] = molecular target: FAM-labeled, EndoH-digested GluA2S amino-terminal domain; experiment: AUC; remark: listed apart in the source
[8] = molecular target: GluA2S amino-terminal domain expressed in GnTI- cells and digested with EndoH; experiment: dynamic light scattering
[9] = molecular target: GluA2S amino-terminal domain expressed in GnTI- cells and digested with EndoH; experiment: AUC
[10] = molecular target: GluA2S amino-terminal domain expressed in GnTI- cells and digested with EndoH; experiment: SEC-MALS
[11] = molecular target: GluA2S amino-terminal domain expressed in GnTI- cells and digested with EndoH; experiment: AUC; remark: listed apart in the source
[12] = molecular target: GluA2S amino-terminal domain expressed in GnTI- cells and digested with EndoH; experiment: AUC; remark: listed apart in the source
[13] = molecular target: GluA2S amino-terminal domain expressed in GnTI- cells and digested with EndoH; experiment: AUC; remark: listed apart in the source
[14] = molecular target: GluA2S amino-terminal domain expressed in GnTI- cells and digested with EndoH; experiment: AUC; remark: listed apart in the source
[15] = molecular target: DyLight405-labeled, EndoH-digested GluA2S amino-terminal domain; experiment: fluorescence polarisation
[16] = molecular target: DyLight405-labeled, EndoH-digested GluA2S amino-terminal domain; experiment: fluorescence polarisation; remark: listed apart in the source
[17] = molecular target: GluA2S amino-terminal domain expressed in GnTI- cells and digested with EndoH; experiment: AUC; remark: listed apart in the source
[18] = molecular target: GluA3 amino-terminal domain expressed in HEK293T cells (UniProt P19492); experiment: AUC
[19] = molecular target: GluA3 amino-terminal domain expressed in HEK293T cells (UniProt P19492); experiment: AUC; remark: listed apart in the source
[20] = molecular target: GluA2S amino-terminal domain expressed in HEK293S GnTI- cells (high mannose glycans); experiment: SEC-MALS
[21] = molecular target: GluA2S amino-terminal domain expressed in HEK293S GnTI- cells (high mannose glycans); experiment: AUC

Sequence of GluA2S amino-terminal domain expressed in HEK293T cells (complex glycosylation) (P19491 22-883, one chain of several): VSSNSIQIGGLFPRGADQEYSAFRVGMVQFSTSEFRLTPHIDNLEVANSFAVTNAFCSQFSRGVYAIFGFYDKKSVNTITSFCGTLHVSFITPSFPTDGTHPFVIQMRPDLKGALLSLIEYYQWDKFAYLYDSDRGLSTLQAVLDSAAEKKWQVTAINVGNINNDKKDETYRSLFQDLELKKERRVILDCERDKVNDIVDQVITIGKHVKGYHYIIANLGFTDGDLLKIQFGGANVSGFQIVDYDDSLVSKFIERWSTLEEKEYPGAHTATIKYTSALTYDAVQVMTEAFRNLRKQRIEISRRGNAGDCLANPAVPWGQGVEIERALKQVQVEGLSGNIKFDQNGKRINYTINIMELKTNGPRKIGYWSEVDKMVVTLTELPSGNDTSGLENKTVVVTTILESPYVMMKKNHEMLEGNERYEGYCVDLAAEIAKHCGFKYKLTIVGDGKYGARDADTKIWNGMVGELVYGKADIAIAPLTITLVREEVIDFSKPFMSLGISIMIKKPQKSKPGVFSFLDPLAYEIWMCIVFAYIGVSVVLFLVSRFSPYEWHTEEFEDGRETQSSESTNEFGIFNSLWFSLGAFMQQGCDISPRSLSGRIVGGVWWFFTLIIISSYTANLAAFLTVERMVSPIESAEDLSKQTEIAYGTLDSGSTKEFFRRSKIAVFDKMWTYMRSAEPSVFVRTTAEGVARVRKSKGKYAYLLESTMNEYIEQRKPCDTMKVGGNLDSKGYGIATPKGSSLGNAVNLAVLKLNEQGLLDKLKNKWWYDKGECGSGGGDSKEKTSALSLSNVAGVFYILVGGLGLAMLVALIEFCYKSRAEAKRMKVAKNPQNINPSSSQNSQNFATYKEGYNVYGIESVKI
Sequence of GluA2S amino-terminal domain expressed in GnTI- cells and digested with EndoH (P19491 22-883): as the sequence (P19491 22-883, one chain of several) above
Sequence of FAM-labeled, EndoH-digested GluA2S amino-terminal domain (P19491 22-883): as the sequence (P19491 22-883, one chain of several) above
Sequence of GluA2S amino-terminal domain expressed in HEK293S GnTI- cells (high mannose glycans) (P19491 22-883): as the sequence (P19491 22-883, one chain of several) above

Substance: GluA2S amino-terminal domain expressed in HEK293T cells (complex glycosylation) (domain or fragment)
stoichiometry N [1]: 2
stoichiometry N [2]: 2
Kd [3]: 0.006 µM
Kd [4]: 0.0083 µM

Substance: FAM-labeled, EndoH-digested GluA2S amino-terminal domain (domain or fragment)
Kd [5]: 0.0149 µM
Kd [6]: 0.026 µM
Kd [7]: 0.0053 µM

Substance: GluA3 amino-terminal domain expressed in HEK293T cells (from UniProt P19492 23-888) (domain or fragment)
Kd [18]: > 162 µM
Kd [19]: 3.1 µM

Second part, the substance after the results:

stoichiometry N [8]: 2
Kd [9]: 0.017 µM
stoichiometry N [10]: 2
Kd [11]: > 2500 µM
Kd [12]: 0.03 µM
Kd [13]: 0.57 µM
Kd [14]: 0.16 µM and 0.284 µM
Kd [15]: 0.0108 µM and 0.0113 µM and 0.00843 µM
Kd [16]: 0.0097 µM
Kd [17]: 0.0056 µM and 0.0083 µM and 0.0097 µM
Substance: GluA2S amino-terminal domain expressed in GnTI- cells and digested with EndoH (domain or fragment)

stoichiometry N [20]: 2
Kd [21]: 0.011 µM
Substance: GluA2S amino-terminal domain expressed in HEK293S GnTI- cells (high mannose glycans) (domain or fragment)
